Measured values taken from patent US20190144529A1 (UCB, published 2019).

B1: CA645 gL18gH5 Fab (Fab, V domains shown)
VH: EVQLLESGGGLVQPGGSLRLSCAVSGIDLSNYAINWVRQAPGKGLEWIGIIWASGTTFYATWAKGRFTISRDNSKNTVYLQMNSLRAEDTAVYYCARTVPGYSTAPYFDLWGQGTLVTVSS
VL: DIQMTQSPSSVSASVGDRVTITCQSSPSVWINFLSWYQQKPGKAPKLLIYEASKLTSGVPSRFSGSGSGTDFTLTISSLQPEDFATYYCGGGYSSISDTTFGGGTKVEIK
notes: Fab: human gamma1 CH1, human kappa (Km3); Kabat numbering
B2: CA645 gL22gH5 Fab (Fab, V domains shown)
VH: EVQLLESGGGLVQPGGSLRLSCAVSGIDLSNYAINWVRQAPGKGLEWIGIIWASGTTFYATWAKGRFTISRDNSKNTVYLQMNSLRAEDTAVYYCARTVPGYSTAPYFDLWGQGTLVTVSS
VL: DIQMTQSPSSVSASVGDRVTITCQSSPSVWHNFLSWYQQKPGKAPKLLIYEASKLTSGVPSRFSGSGSGTDFTLTISSLQPEDFATYYCGGGYSSISDTTFGGGTKVEIK
notes: as for B1
B3: CA645 gL23gH5 Fab (Fab, V domains shown)
VH: EVQLLESGGGLVQPGGSLRLSCAVSGIDLSNYAINWVRQAPGKGLEWIGIIWASGTTFYATWAKGRFTISRDNSKNTVYLQMNSLRAEDTAVYYCARTVPGYSTAPYFDLWGQGTLVTVSS
VL: DIQMTQSPSSVSASVGDRVTITCQSSPSVWLNFLSWYQQKPGKAPKLLIYEASKLTSGVPSRFSGSGSGTDFTLTISSLQPEDFATYYCGGGYSSISDTTFGGGTKVEIK
notes: as for B1
B4: CA645 gL25gH5 Fab (Fab, V domains shown)
VH: EVQLLESGGGLVQPGGSLRLSCAVSGIDLSNYAINWVRQAPGKGLEWIGIIWASGTTFYATWAKGRFTISRDNSKNTVYLQMNSLRAEDTAVYYCARTVPGYSTAPYFDLWGQGTLVTVSS
VL: DIQMTQSPSSVSASVGDRVTITCQSSPSVWFNFLSWYQQKPGKAPKLLIYEASKLTSGVPSRFSGSGSGTDFTLTISSLQPEDFATYYCGGGYSSISDTTFGGGTKVEIK
notes: as for B1
B5: CA645 gL21gH5 Fab (Fab, V domains shown)
VH: EVQLLESGGGLVQPGGSLRLSCAVSGIDLSNYAINWVRQAPGKGLEWIGIIWASGTTFYATWAKGRFTISRDNSKNTVYLQMNSLRAEDTAVYYCARTVPGYSTAPYFDLWGQGTLVTVSS
VL: DIQMTQSPSSVSASVGDRVTITCQSSPSVWENFLSWYQQKPGKAPKLLIYEASKLTSGVPSRFSGSGSGTDFTLTISSLQPEDFATYYCGGGYSSISDTTFGGGTKVEIK
notes: as for B1
B6: CA645 gL20gH5 Fab (Fab, V domains shown)
VH: EVQLLESGGGLVQPGGSLRLSCAVSGIDLSNYAINWVRQAPGKGLEWIGIIWASGTTFYATWAKGRFTISRDNSKNTVYLQMNSLRAEDTAVYYCARTVPGYSTAPYFDLWGQGTLVTVSS
VL: DIQMTQSPSSVSASVGDRVTITCQSSPSVWQNFLSWYQQKPGKAPKLLIYEASKLTSGVPSRFSGSGSGTDFTLTISSLQPEDFATYYCGGGYSSISDTTFGGGTKVEIK
notes: as for B1
B7: CA645 gL19gH5 Fab (Fab, V domains shown)
VH: EVQLLESGGGLVQPGGSLRLSCAVSGIDLSNYAINWVRQAPGKGLEWIGIIWASGTTFYATWAKGRFTISRDNSKNTVYLQMNSLRAEDTAVYYCARTVPGYSTAPYFDLWGQGTLVTVSS
VL: DIQMTQSPSSVSASVGDRVTITCQSSPSVWDNFLSWYQQKPGKAPKLLIYEASKLTSGVPSRFSGSGSGTDFTLTISSLQPEDFATYYCGGGYSSISDTTFGGGTKVEIK
notes: as for B1
B8: CA645 gL24gH5 Fab (Fab, V domains shown)
VH: EVQLLESGGGLVQPGGSLRLSCAVSGIDLSNYAINWVRQAPGKGLEWIGIIWASGTTFYATWAKGRFTISRDNSKNTVYLQMNSLRAEDTAVYYCARTVPGYSTAPYFDLWGQGTLVTVSS
VL: DIQMTQSPSSVSASVGDRVTITCQSSPSVWVNFLSWYQQKPGKAPKLLIYEASKLTSGVPSRFSGSGSGTDFTLTISSLQPEDFATYYCGGGYSSISDTTFGGGTKVEIK
notes: as for B1

molecular target: T1, human serum albumin (human, UniProt P02768 25-609); experiment: SPR, Fab captured; albumin taken as HSA;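 further: antibody captured on the sensor surface, albumin injected for a 3 min association phase, then dissociation followed, with signals corrected against a blank flow cell and buffer-only injections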
T1 construct: mature; Bought purified serum albumin; also called HSA; Human albumin
Experimental: Each assay cycle consisted of firstly capturing the antibody sample using a 1 min injection, before an association phase consisting of a 3 min injection of albumin, after which dissociation was monitored. After each cycle, the capture surface was regenerated with two 1 min injections of 40 mM HCl followed by 30 s of 5 mM NaOH. The flow rates used were 10 μl/min for capture, 30 μl/min for both the association and dissociation phases, and 10 μl/min for regeneration. A blank flow-cell was used for reference subtraction and buffer-blank injections were included to subtract instrument noise and drift.

Point of comparison: B5, Kd 6.34 nM. Against it:
- B1 — 2.4-fold higher, 15.5 nM
- B2 — within 1.5-fold, 8.58 nM
- B3 — 2.3-fold higher, 14.8 nM
- B4 — 1.6-fold lower, 3.85 nM
- B6 — 2.3-fold higher, 14.3 nM
- B7 — within 1.5-fold, 5 nM
- B8 — 2.5-fold higher, 16.1 nM

Point of comparison: B5, koff 0.000323 s⁻¹. Against it:
- B1 — 2.5-fold higher, 0.000823 s⁻¹
- B2 — within 1.5-fold, 0.000478 s⁻¹
- B3 — 2.5-fold higher, 0.000814 s⁻¹
- B4 — within 1.5-fold, 0.000217 s⁻¹
- B6 — 2.5-fold higher, 0.000794 s⁻¹
- B7 — within 1.5-fold, 0.00026 s⁻¹
- B8 — 2.7-fold higher, 0.000883 s⁻¹

Point of comparison: B4, kon 56200 M⁻¹ s⁻¹. Against it:
- B1 — within 1.5-fold, 53200 M⁻¹ s⁻¹
- B2 — within 1.5-fold, 55700 M⁻¹ s⁻¹
- B3 — within 1.5-fold, 54900 M⁻¹ s⁻¹
- B5 — within 1.5-fold, 51000 M⁻¹ s⁻¹
- B6 — within 1.5-fold, 55500 M⁻¹ s⁻¹
- B7 — within 1.5-fold, 52000 M⁻¹ s⁻¹
- B8 — within 1.5-fold, 54700 M⁻¹ s⁻¹
